According to article PMC6638984, “Increased association between Epstein-Barr virus EBNA2 from type 2 strains and the transcriptional repressor BS69 restricts EBNA2 activity” (PLoS Pathogens, 2019):

Biological target: T1, BS69CC-MYND (BS69 amino acid 480–602, CC-MYND domain) (Homo sapiens, UniProt Q15326)
T1 construct: The BS69 CC-MYND domain (amino acids 480–602) was amplified from pCI-BS69; GST (N, cleaved yes); 6xHis (N, cleaved yes); made in house; host or cells: E. coli Rosetta 2 (DE3) pLysS
T1 sequence (Q15326 480-602): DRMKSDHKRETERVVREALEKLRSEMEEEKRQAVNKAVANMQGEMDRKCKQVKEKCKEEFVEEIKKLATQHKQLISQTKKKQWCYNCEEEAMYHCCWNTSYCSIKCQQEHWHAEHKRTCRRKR
Test: Isothermal titration calorimetry (ITC) of EBNA2 peptides and polypeptides binding to BS69CC-MYND
Conditions: 25°C, mean ± SD of 3 independent experiments; for n value (stoichiometry of BS69CC-MYND/EBNA2 binding, monomeric proteins), one-site model: pH 7.5, polypeptides 19 x 2.0 μl injections into 0.1 mM BS69CC-MYND
From the text: We hypothesised that the impaired gene activation and growth maintenance properties of type 2 EBNA2 may be the result of increased binding to BS69 as a result of the aspartate to serine amino acid difference adjacent to BS69 binding motif 2. […] We used isothermal titration calorimetry (ITC) to determine the affinity of peptide binding to the C-terminal region of BS69 (amino acid 480–602) comprising the CC-MYND domain that we expressed and purified from E.coli (Fig 1B and 1C). […] The difference in binding between type 1 and type 2 EBNA2 motif 2 peptides could be influenced by both the aspartate to serine change and differences in two other amino acids present in the sequence (Fig 1B and 1C).
The BS69 CC-MYND domain (amino acids 480–602) was amplified from pCI-BS69 containing the full length human BS69 sequence (gift from Dr Stéphane Ansieau) and cloned using SLIC into the SmaI and HindIII sites of pET49b+ to generate a construct expressing an N-terminal GST-6x Histidine tag BS69CC-MYND fusion protein (S2 Table).
Four commercially synthesized peptides (Peptide Synthetics) were used for ITC. These included BS69 binding motif 2 of type 1 EBNA2 (435–445) or type 2 EBNA2 (402–412) and putative BS69 binding motif 3 of type 1 EBNA2 (445–455) or type 2 EBNA2 (412–422).
Frozen protein was quickly thawed using running water and dialysed overnight at 4°C using Slide-A-Lyzer MINI Dialysis Units (Thermo Scientific) against ITC buffer (20mM Tris-HCl, 100mM NaCl and 1mM TCEP, pH 7.5). The next day, protein samples were centrifuged at 13000 rpm for 10 mins at 4 °C and the concentration was determined by NanoDrop spectroscopy (NanoDrop Technologies) with their respective molecular weights and extinction coefficients. EBNA2 peptides (1mM) and polypeptides (type 1, 0.3 mM and type 2, 0.6 mM) were titrated against BS69CC-MYND (0.1mM) at 25°C using a MicroCalTM iTC200 instrument (Malvern). For peptides, 13 x 3.0 μl injections were used for titration. For EBNA2 polypeptides 19 x 2.0 μl or 29 x 1.3 μl injections were used for titration. ITC data were corrected for non-specific heat and analysed using MicroCal Origin 7.0. The experiments were performed in triplicate alongside a control experiment with no BS69CC-MYND (buffer only in the cell). All polypeptides were used within 24 hrs of dialysis into ITC buffer.

[1] = pH 7.5, peptides 13 injections, polypeptides 19 injections

| Substance | KD (dissociation constant), one-site (one event) binding model (20mM Tris-HCl, 100mM NaCl, 1mM TCEP, pH 7.5, EBNA2 titrated into 0.1 mM BS69CC-MYND, peptides 1 mM, 13 injections, n fixed to 1, polypeptides 19 x 2.0 μl injections) | Kd (20mM Tris-HCl, 100mM NaCl, 1mM TCEP, pH 7.5, EBNA2 titrated into 0.1 mM BS69CC-MYND, peptides 1 mM, 13 injections, n fixed to 1, polypeptides 19 x 2.0 μl injections, read-out: KD (dissociation constant), one-site (one event) binding model) | -TΔS, one-site model [1] | ΔG, one-site model [1] | ΔH, one-site model [1] | n value (stoichiometry of BS69CC-MYND/EBNA2 binding, monomeric proteins), one-site model | n value (stoichiometry of BS69CC-MYND/EBNA2 binding, monomeric proteins), one-site model (listed as type 1 EBNA2_381-445) |
| --- | --- | --- | --- | --- | --- | --- | --- |
| YPPSIDPADLD [T1 EBNA2 motif 3] | not able to detect any binding |  |  |  |  |  |  |
| T1 EBNA2_381-445: type 1 EBNA2 polypeptide, amino acids 381–445, expressed and purified from E.coli |  | 950 nM | 18.4 ± 0.46 kcal/mol | -8.22 ± 0.08 kcal/mol | -26.6 ± 0.53 kcal/mol | 0.42 ± 0.02 | 0.42 |
